Measurements from PMC9482650, “Quantitative fragmentomics allow affinity mapping of interactomes” (Nature Communications, 2022).

Target: T1, APBA1_1, Q02410
T1 sequence (Q02410 651-752, limits assumed, looked up): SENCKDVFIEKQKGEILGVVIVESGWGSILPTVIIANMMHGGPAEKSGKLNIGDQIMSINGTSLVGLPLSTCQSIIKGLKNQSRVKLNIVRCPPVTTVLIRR
Assay: holdup assay
Design: key: below the threshold = too weak to quantify, mostly under pKd 3.1 to 4
Settings: plain residues with an end cap or a label only (N-terminal biotin on a linker: ado-ado)

| Binder | pKd |
| --- | --- |
| PDSNPEESSV [SEMA4C, Q9C0C4] | below the threshold |
| PKLMGVETVV [DUSP10, Q9Y6W6] | below the threshold |

Target: T2, APBA1_2, Q02410
T2 sequence (Q02410 742-832, limits assumed, looked up): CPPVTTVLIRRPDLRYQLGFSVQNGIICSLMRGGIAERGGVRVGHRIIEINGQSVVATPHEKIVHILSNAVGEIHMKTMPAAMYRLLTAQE
Assay: holdup assay
Design: key: below the threshold = too weak to quantify, mostly under pKd 3.1 to 4
Settings: plain residues with an end cap or a label only (N-terminal biotin on a linker: ado-ado)

| Binder | pKd |
| --- | --- |
| PDSNPEESSV [SEMA4C, Q9C0C4] | 3.8 |
| PKLMGVETVV [DUSP10, Q9Y6W6] | 4.08 |

Target: T3, ARHGAP21, Q5T5U3
T3 sequence (Q5T5U3 45-169, limits assumed, looked up): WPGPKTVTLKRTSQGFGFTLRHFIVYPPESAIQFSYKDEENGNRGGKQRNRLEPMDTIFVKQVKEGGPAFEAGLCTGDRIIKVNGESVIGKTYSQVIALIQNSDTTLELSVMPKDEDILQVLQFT
Assay: holdup assay
Design: key: below the threshold = too weak to quantify, mostly under pKd 3.1 to 4
Settings: plain residues with an end cap or a label only (N-terminal biotin on a linker: ado-ado)

| Binder | pKd |
| --- | --- |
| PDSNPEESSV [SEMA4C, Q9C0C4] | 4.09 |
| PKLMGVETVV [DUSP10, Q9Y6W6] | 3.73 |

Target: T4, DLG3_3, Q92796
T4 sequence (Q92796 374-475, limits assumed, looked up): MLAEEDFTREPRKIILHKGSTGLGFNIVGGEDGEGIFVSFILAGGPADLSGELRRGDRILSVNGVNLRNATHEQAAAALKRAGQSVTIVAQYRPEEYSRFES
Assay: holdup assay
Design: key: below the threshold = too weak to quantify, mostly under pKd 3.1 to 4
Settings: plain residues with an end cap or a label only (N-terminal biotin on a linker: ado-ado)

| Binder | pKd |
| --- | --- |
| PDSNPEESSV [SEMA4C, Q9C0C4] | 3.62 |
| PKLMGVETVV [DUSP10, Q9Y6W6] | 3.91 |

Target: DLG4_1, P78352
Sequence (P78352 62-152): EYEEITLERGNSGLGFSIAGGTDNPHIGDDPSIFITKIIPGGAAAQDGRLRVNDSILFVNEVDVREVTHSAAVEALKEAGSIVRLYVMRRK
Assay: holdup assay
Design: key: below the threshold = too weak to quantify, mostly under pKd 3.1 to 4
Settings: plain residues with an end cap or a label only (N-terminal biotin on a linker: ado-ado)

| Binder | pKd |
| --- | --- |
| PDSNPEESSV [SEMA4C, Q9C0C4] | 3.99 |
| PKLMGVETVV [DUSP10, Q9Y6W6] | 5.16 |

Target: GRASP, Q7Z6J2
Sequence (Q7Z6J2 96-193): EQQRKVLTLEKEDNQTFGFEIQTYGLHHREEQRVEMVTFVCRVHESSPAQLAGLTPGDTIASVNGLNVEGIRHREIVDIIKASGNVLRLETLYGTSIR
Assay: holdup assay
Design: key: below the threshold = too weak to quantify, mostly under pKd 3.1 to 4
Settings: plain residues with an end cap or a label only (N-terminal biotin on a linker: ado-ado)

| Binder | pKd |
| --- | --- |
| PDSNPEESSV [SEMA4C, Q9C0C4] | 3.91 |
| PKLMGVETVV [DUSP10, Q9Y6W6] | 3.78 |

Target: GRID2IP_1, A4D2P6
Sequence (A4D2P6 1-87): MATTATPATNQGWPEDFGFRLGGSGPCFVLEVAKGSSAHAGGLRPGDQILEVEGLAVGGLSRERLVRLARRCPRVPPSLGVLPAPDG
Assay: holdup assay
Design: key: below the threshold = too weak to quantify, mostly under pKd 3.1 to 4
Settings: plain residues with an end cap or a label only (N-terminal biotin on a linker: ado-ado)

| Binder | pKd |
| --- | --- |
| PDSNPEESSV [SEMA4C, Q9C0C4] | below the threshold |
| PKLMGVETVV [DUSP10, Q9Y6W6] | below the threshold |

Target: T5, GRIP1_7, Q9Y3R0
T5 sequence (Q9Y3R0 999-1096, limits assumed, looked up): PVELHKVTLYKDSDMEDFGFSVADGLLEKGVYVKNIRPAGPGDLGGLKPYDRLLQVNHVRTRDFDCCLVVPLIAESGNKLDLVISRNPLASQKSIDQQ
Assay: holdup assay
Design: key: below the threshold = too weak to quantify, mostly under pKd 3.1 to 4
Settings: plain residues with an end cap or a label only (N-terminal biotin on a linker: ado-ado)

| Binder | pKd |
| --- | --- |
| PDSNPEESSV [SEMA4C, Q9C0C4] | below the threshold |
| PKLMGVETVV [DUSP10, Q9Y6W6] | below the threshold |

Target: T6, HTRA4, P83105
T6 sequence (P83105 378-476, limits assumed, looked up): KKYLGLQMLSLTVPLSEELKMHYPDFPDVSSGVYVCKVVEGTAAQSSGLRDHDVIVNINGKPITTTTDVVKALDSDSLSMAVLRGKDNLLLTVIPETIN
Assay: holdup assay
Design: key: below the threshold = too weak to quantify, mostly under pKd 3.1 to 4
Settings: plain residues with an end cap or a label only (N-terminal biotin on a linker: ado-ado)

| Binder | pKd |
| --- | --- |
| PDSNPEESSV [SEMA4C, Q9C0C4] | below the threshold |
| PKLMGVETVV [DUSP10, Q9Y6W6] | 3.74 |

Target: Inadl_2, Q8NI35
Sequence (Q8NI35 238-335): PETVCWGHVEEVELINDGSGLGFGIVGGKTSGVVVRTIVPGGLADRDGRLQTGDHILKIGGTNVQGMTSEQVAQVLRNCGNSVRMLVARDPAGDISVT
Assay: holdup assay
Design: key: below the threshold = too weak to quantify, mostly under pKd 3.1 to 4
Settings: plain residues with an end cap or a label only (N-terminal biotin on a linker: ado-ado)

| Binder | pKd |
| --- | --- |
| PDSNPEESSV [SEMA4C, Q9C0C4] | below the threshold |
| PKLMGVETVV [DUSP10, Q9Y6W6] | below the threshold |

Target: Inadl_9, Q8NI35
Sequence (Q8NI35 1530-1615): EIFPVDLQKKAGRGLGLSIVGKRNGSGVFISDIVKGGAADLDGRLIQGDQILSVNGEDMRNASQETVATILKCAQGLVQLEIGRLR
Assay: holdup assay
Design: key: below the threshold = too weak to quantify, mostly under pKd 3.1 to 4
Settings: plain residues with an end cap or a label only (N-terminal biotin on a linker: ado-ado)

| Binder | pKd |
| --- | --- |
| PDSNPEESSV [SEMA4C, Q9C0C4] | 3.57 |
| PKLMGVETVV [DUSP10, Q9Y6W6] | 3.55 |

Target: T7, LIN7A, O14910
T7 sequence (O14910 103-200, limits assumed, looked up): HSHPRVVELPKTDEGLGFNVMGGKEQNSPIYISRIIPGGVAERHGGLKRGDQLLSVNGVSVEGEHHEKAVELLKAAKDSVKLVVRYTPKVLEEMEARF
Assay: holdup assay
Design: key: below the threshold = too weak to quantify, mostly under pKd 3.1 to 4
Settings: plain residues with an end cap or a label only (N-terminal biotin on a linker: ado-ado)

| Binder | pKd |
| --- | --- |
| PDSNPEESSV [SEMA4C, Q9C0C4] | below the threshold |
| PKLMGVETVV [DUSP10, Q9Y6W6] | 3.58 |

Target: T8, LNX2_2, Q8N448
T8 sequence (Q8N448 334-432, limits assumed, looked up): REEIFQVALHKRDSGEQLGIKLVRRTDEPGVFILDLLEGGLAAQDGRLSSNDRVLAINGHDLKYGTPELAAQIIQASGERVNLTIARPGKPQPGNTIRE
Assay: holdup assay
Design: key: below the threshold = too weak to quantify, mostly under pKd 3.1 to 4
Settings: plain residues with an end cap or a label only (N-terminal biotin on a linker: ado-ado)

| Binder | pKd |
| --- | --- |
| PDSNPEESSV [SEMA4C, Q9C0C4] | below the threshold |
| PKLMGVETVV [DUSP10, Q9Y6W6] | 5.21 |

Target: MAGI1_1, Q96QZ7
Sequence (Q96QZ7 1-106): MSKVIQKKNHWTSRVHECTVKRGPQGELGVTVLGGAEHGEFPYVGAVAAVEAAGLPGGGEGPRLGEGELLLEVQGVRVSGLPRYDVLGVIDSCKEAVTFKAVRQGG
Assay: holdup assay
Design: key: below the threshold = too weak to quantify, mostly under pKd 3.1 to 4
Settings: plain residues with an end cap or a label only (N-terminal biotin on a linker: ado-ado)

| Binder | pKd |
| --- | --- |
| PDSNPEESSV [SEMA4C, Q9C0C4] | 3.57 |
| PKLMGVETVV [DUSP10, Q9Y6W6] | 3.52 |

Target: T9, MPP6, Q9NZW5
T9 sequence (Q9NZW5 125-219, limits assumed, looked up): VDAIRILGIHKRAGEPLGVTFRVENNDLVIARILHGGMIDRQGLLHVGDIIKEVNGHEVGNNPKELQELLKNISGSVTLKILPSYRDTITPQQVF
Assay: holdup assay
Design: key: below the threshold = too weak to quantify, mostly under pKd 3.1 to 4
Settings: plain residues with an end cap or a label only (N-terminal biotin on a linker: ado-ado)

| Binder | pKd |
| --- | --- |
| PDSNPEESSV [SEMA4C, Q9C0C4] | below the threshold |
| PKLMGVETVV [DUSP10, Q9Y6W6] | 3.82 |

Target: NHERF2_2, Q15599
Sequence (Q15599 142-238): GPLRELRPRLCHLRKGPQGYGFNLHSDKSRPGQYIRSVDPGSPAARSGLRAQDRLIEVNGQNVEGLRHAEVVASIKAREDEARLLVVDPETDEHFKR
Assay: holdup assay
Design: key: below the threshold = too weak to quantify, mostly under pKd 3.1 to 4
Settings: plain residues with an end cap or a label only (N-terminal biotin on a linker: ado-ado)

| Binder | pKd |
| --- | --- |
| PDSNPEESSV [SEMA4C, Q9C0C4] | 3.88 |
| PKLMGVETVV [DUSP10, Q9Y6W6] | below the threshold |

Target: NHERF4_1, Q86UT5-2
Sequence (Q86UT5 other isoform, or with tags, fused parts or gaps): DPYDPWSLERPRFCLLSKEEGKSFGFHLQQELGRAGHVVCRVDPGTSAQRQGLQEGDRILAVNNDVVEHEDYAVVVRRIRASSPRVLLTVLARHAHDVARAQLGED
Assay: holdup assay
Design: key: below the threshold = too weak to quantify, mostly under pKd 3.1 to 4
Settings: plain residues with an end cap or a label only (N-terminal biotin on a linker: ado-ado)

| Binder | pKd |
| --- | --- |
| PDSNPEESSV [SEMA4C, Q9C0C4] | 3.7 |
| PKLMGVETVV [DUSP10, Q9Y6W6] | below the threshold |

Target: NHERF4_4, Q86UT5
Sequence (Q86UT5 464-550): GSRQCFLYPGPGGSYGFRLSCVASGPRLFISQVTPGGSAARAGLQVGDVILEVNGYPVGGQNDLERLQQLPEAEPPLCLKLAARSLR
Assay: holdup assay
Design: key: below the threshold = too weak to quantify, mostly under pKd 3.1 to 4
Settings: plain residues with an end cap or a label only (N-terminal biotin on a linker: ado-ado)

| Binder | pKd |
| --- | --- |
| PDSNPEESSV [SEMA4C, Q9C0C4] | below the threshold |
| PKLMGVETVV [DUSP10, Q9Y6W6] | below the threshold |

Target: NOS1, P29475
Sequence (P29475 9-101): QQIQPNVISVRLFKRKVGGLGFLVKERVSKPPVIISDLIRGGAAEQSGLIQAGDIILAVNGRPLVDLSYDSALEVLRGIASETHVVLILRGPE
Assay: holdup assay
Design: key: below the threshold = too weak to quantify, mostly under pKd 3.1 to 4
Settings: plain residues with an end cap or a label only (N-terminal biotin on a linker: ado-ado)

| Binder | pKd |
| --- | --- |
| PDSNPEESSV [SEMA4C, Q9C0C4] | 3.71 |
| PKLMGVETVV [DUSP10, Q9Y6W6] | 4.08 |

Target: PICK1, Q9NRD5
Sequence (Q9NRD5 17-115): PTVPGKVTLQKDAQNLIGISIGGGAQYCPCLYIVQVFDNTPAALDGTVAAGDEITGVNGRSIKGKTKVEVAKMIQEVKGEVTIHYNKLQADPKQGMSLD
Assay: holdup assay
Design: key: below the threshold = too weak to quantify, mostly under pKd 3.1 to 4
Settings: plain residues with an end cap or a label only (N-terminal biotin on a linker: ado-ado)

| Binder | pKd |
| --- | --- |
| PDSNPEESSV [SEMA4C, Q9C0C4] | below the threshold |
| PKLMGVETVV [DUSP10, Q9Y6W6] | below the threshold |

Target: T10, RAPGEF6, Q8TEU7
T10 sequence (Q8TEU7 525-625, limits assumed, looked up): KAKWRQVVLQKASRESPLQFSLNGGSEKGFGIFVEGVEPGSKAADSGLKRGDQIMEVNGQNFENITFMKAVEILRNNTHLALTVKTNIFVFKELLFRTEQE
Assay: holdup assay
Design: key: below the threshold = too weak to quantify, mostly under pKd 3.1 to 4
Settings: plain residues with an end cap or a label only (N-terminal biotin on a linker: ado-ado)

| Binder | pKd |
| --- | --- |
| PDSNPEESSV [SEMA4C, Q9C0C4] | below the threshold |
| PKLMGVETVV [DUSP10, Q9Y6W6] | below the threshold |

Target: T11, SNTB1, Q13884
T11 sequence (Q13884 107-205, limits assumed, looked up): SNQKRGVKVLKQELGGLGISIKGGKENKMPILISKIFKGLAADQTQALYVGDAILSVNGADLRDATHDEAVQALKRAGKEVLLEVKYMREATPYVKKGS
Assay: holdup assay
Design: key: below the threshold = too weak to quantify, mostly under pKd 3.1 to 4
Settings: plain residues with an end cap or a label only (N-terminal biotin on a linker: ado-ado)

| Binder | pKd |
| --- | --- |
| PDSNPEESSV [SEMA4C, Q9C0C4] | 4.46 |
| PKLMGVETVV [DUSP10, Q9Y6W6] | 5.17 |

Target: TJP1_3, Q07157
Sequence (Q07157 416-512): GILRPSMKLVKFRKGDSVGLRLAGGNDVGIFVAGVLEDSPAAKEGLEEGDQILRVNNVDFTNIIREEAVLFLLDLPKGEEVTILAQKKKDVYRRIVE
Assay: holdup assay
Design: key: below the threshold = too weak to quantify, mostly under pKd 3.1 to 4
Settings: plain residues with an end cap or a label only (N-terminal biotin on a linker: ado-ado)

| Binder | pKd |
| --- | --- |
| PDSNPEESSV [SEMA4C, Q9C0C4] | below the threshold |
| PKLMGVETVV [DUSP10, Q9Y6W6] | below the threshold |

Target: TJP2_1, Q9UDY2
Sequence (Q9UDY2 24-128): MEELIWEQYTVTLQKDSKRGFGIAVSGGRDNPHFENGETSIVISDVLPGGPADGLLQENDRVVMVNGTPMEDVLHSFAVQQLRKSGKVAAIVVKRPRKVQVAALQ
Assay: holdup assay
Design: key: below the threshold = too weak to quantify, mostly under pKd 3.1 to 4
Settings: plain residues with an end cap or a label only (N-terminal biotin on a linker: ado-ado)

| Binder | pKd |
| --- | --- |
| PDSNPEESSV [SEMA4C, Q9C0C4] | below the threshold |
| PKLMGVETVV [DUSP10, Q9Y6W6] | below the threshold |

Target: T12, TJP3_3, O95049
T12 sequence (O95049 375-456, limits assumed, looked up): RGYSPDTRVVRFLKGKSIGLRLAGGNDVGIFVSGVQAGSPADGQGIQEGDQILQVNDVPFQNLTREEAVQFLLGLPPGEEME
Assay: holdup assay
Design: key: below the threshold = too weak to quantify, mostly under pKd 3.1 to 4
Settings: plain residues with an end cap or a label only (N-terminal biotin on a linker: ado-ado)

| Binder | pKd |
| --- | --- |
| PDSNPEESSV [SEMA4C, Q9C0C4] | below the threshold |
| PKLMGVETVV [DUSP10, Q9Y6W6] | below the threshold |
